Reference: patent US20250034275A1 (CHIA TAI TIANQING PHARMACEUTICAL GROUP, published 2025)
Where two headings read alike, the source gives them in different places.

Key:
[1] = target: human Trop-2 (on the surface of human cell lines) (human) (UniProt P09758); assay: flow cytometry, HCC38 cells
[2] = target: human Trop-2 (on the surface of human cell lines) (human) (UniProt P09758); assay: flow cytometry, HUVEC cells, antibody at 3 ug/mL
[3] = target: human Trop-2 (on the surface of human cell lines) (human) (UniProt P09758); assay: flow cytometry, HCC38 cells; remark: listed apart in the source
[4] = target: human Trop-2 (on the surface of human cell lines) (human) (UniProt P09758); assay: cell-based or functional assay
[5] = target: Macaque Trop-2-His (macaque); assay: ELISA, plate-coated macaque Trop-2-His
[6] = target: human Trop-2 (on the surface of human cell lines) (human) (UniProt P09758); assay: flow cytometry, OVCAR-3 cells
[7] = target: human Trop-2 (on the surface of human cell lines) (human) (UniProt P09758); assay: flow cytometry, HCC38 cells, antibody at 3 ug/mL
[8] = target: Macaque Trop-2-His (macaque); assay: ELISA, plate-coated macaque Trop-2-His; remark: listed apart in the source
[9] = target: Macaque Trop-2-His (macaque); assay: ELISA, plate-coated macaque Trop-2-His; remark: listed apart in the source
[10] = target: human Trop-2 (on the surface of human cell lines) (human) (UniProt P09758); assay: flow cytometry, HCC38 cells; remark: listed apart in the source
[11] = target: human Trop-2 (on the surface of human cell lines) (human) (UniProt P09758); assay: flow cytometry, NCI-H322 cells, antibody at 3 ug/mL
[12] = target: human Trop-2 (on the surface of human cell lines) (human) (UniProt P09758); assay: flow cytometry, Capan-1 cells, antibody at 3 ug/mL
[13] = target: human Trop-2 (on the surface of human cell lines) (human) (UniProt P09758); assay: flow cytometry, HCC1806 cells
[14] = target: human Trop-2 (on the surface of human cell lines) (human) (UniProt P09758); assay: flow cytometry, HCC1806 cells, antibody at 3 ug/mL
human Trop-2-His [15] = target: T1, human Trop-2-His (human, UniProt P09758 27-274, limits assumed); assay: SPR (Biacore 8K), antibody captured, Trop-2-His as analyte
T1 construct: by analogy with the macaque construct it is probably the extracellular domain with a His tag; also called Trop-2-His protein
T1 sequence: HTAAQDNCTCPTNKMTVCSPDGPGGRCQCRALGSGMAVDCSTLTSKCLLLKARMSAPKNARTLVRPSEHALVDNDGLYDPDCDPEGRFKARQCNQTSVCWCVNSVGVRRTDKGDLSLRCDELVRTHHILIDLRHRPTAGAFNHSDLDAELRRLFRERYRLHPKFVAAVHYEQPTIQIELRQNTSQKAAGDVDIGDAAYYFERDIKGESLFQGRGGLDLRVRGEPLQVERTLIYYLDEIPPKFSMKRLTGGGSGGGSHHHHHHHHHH
Summary of the method: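 Antibody captured on anti-human IgG-coated CM5 chip; human Trop-2-His flowed as analyte with real-time association/dissociation recording, 3M MgCl₂ regeneration. Double-subtracted curves fit to Langmuir 1:1 model giving ka, kd and KD.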

[16] = target: human Trop-2 (on the surface of human cell lines) (human) (UniProt P09758); assay: flow cytometry, OVCAR-3 cells; remark: listed apart in the source
[17] = target: human Trop-2 (on the surface of human cell lines) (human) (UniProt P09758); assay: flow cytometry, HCC1806 cells; remark: listed apart in the source
[18] = target: human Trop-2 (on the surface of human cell lines) (human) (UniProt P09758); assay: flow cytometry, HCC1806 cells; remark: listed apart in the source
human Trop-2-His [19] = target: T1, human Trop-2-His; assay: ELISA, plate-coated human Trop-2-His
[20] = target: human Trop-2 (on the surface of human cell lines) (human) (UniProt P09758); assay: flow cytometry, PC-3 cells, antibody at 3 ug/mL
[21] = target: human Trop-2 (on the surface of human cell lines) (human) (UniProt P09758); assay: flow cytometry, OVCAR-3 cells, antibody at 3 ug/mL

EC50 [1]: 1.04 nM
MFI [2]: 125000
Positive rate (%) [2]: 22.9%
Ratio (MFI of TINA to MFI of the IgG1 control) [2]: 6.1
EC50 [3]: 0.79 nM
ADCC reporter (Jurkat-CD16a v158-NFAT-luciferase), target cell H322, EC50 [4]: 0.27 nM
ADCC reporter (Jurkat-CD16a v158-NFAT-luciferase), target cell HCC1806, EC50 [4]: 0.46 nM
EC50 [5]: 0.106 nM
EC50 [6]: 1.29 nM
MFI [7]: 3.85e+06
Positive rate (%) [7]: 99.3%
Ratio (MFI of TINA to MFI of the IgG1 control) [7]: 119
EC50 [8]: 0.063 nM
EC50 [9]: 0.046 nM
EC50 [10]: 1.21 nM
MFI [11]: 2.83e+06
Positive rate (%) [11]: 100%
Ratio (MFI of TINA to MFI of the IgG1 control) [11]: 133
MFI [12]: 1.21e+06
Positive rate (%) [12]: 98.4%
Ratio (MFI of TINA to MFI of the IgG1 control) [12]: 18.4
EC50 [13]: 0.84 nM
MFI [14]: 1.66e+06
Positive rate (%) [14]: 99.9%
Ratio (MFI of TINA to MFI of the IgG1 control) [14]: 102
Kd (human Trop-2-His [15]): 12.5 nM
koff (human Trop-2-His [15]): 0.00239 s⁻¹
kon (human Trop-2-His [15]): 191000 M⁻¹ s⁻¹
EC50 [16]: 1.28 nM
EC50 [17]: 1.44 nM
EC50 [18]: 0.73 nM
EC50 (human Trop-2-His [19]): 0.083 nM
EC50 (human Trop-2-His [19]; record 2): 0.166 nM
MFI [20]: 68500
Positive rate (%) [20]: 69.1%
Ratio (MFI of TINA to MFI of the IgG1 control) [20]: 7.7
MFI [21]: 182000
Positive rate (%) [21]: 99%
Ratio (MFI of TINA to MFI of the IgG1 control) [21]: 15.4
B1: TINA (antibody, INN chains, looked up, V domains shown)
VH: QVQLVQSGAEVKKPGASVKVSCKASGYTFTTAGMQWVRQAPGQGLEWMGWINTHSGVPKYAEDFKGRVTISADTSTSTAYLQLSSLKSEDTAVYYCARSGFGSSYWYFDVWGQGTLVTVSS
VL: DIQMTQSPSSLSASVGDRVTITCKASQDVSTAVAWYQQKPGKAPKLLIYSASYRYTGVPSRFSGSGSGTDFTLTISSLQPEDFAVYYCQQHYITPLTFGQGTKLEIK
ADCC, PBMC killing (LDH), H322, EC50 [4]: 0.02 nM
ADCC, PBMC killing (LDH), H322, Maximum killing (%) [4]: 49.8%
ADCC, PBMC killing (LDH), HCC1806, EC50 [4]: 0.07 nM
ADCC, PBMC killing (LDH), HCC1806, Maximum killing (%) [4]: 38.5%
